Reference: publication PMC12147903

Key:
[1] = target: E3 ubiquitin ligase zinc RING finger 3 (Znrf3) (mouse (endogenous in MIN6)) (UniProt Q5SSZ7)
[2] = target: T1, leucine-rich repeat-containing G-protein coupled receptor 4 (Lgr4) (mouse (endogenous in MIN6)) (UniProt A2ARI4)
T1 sequence: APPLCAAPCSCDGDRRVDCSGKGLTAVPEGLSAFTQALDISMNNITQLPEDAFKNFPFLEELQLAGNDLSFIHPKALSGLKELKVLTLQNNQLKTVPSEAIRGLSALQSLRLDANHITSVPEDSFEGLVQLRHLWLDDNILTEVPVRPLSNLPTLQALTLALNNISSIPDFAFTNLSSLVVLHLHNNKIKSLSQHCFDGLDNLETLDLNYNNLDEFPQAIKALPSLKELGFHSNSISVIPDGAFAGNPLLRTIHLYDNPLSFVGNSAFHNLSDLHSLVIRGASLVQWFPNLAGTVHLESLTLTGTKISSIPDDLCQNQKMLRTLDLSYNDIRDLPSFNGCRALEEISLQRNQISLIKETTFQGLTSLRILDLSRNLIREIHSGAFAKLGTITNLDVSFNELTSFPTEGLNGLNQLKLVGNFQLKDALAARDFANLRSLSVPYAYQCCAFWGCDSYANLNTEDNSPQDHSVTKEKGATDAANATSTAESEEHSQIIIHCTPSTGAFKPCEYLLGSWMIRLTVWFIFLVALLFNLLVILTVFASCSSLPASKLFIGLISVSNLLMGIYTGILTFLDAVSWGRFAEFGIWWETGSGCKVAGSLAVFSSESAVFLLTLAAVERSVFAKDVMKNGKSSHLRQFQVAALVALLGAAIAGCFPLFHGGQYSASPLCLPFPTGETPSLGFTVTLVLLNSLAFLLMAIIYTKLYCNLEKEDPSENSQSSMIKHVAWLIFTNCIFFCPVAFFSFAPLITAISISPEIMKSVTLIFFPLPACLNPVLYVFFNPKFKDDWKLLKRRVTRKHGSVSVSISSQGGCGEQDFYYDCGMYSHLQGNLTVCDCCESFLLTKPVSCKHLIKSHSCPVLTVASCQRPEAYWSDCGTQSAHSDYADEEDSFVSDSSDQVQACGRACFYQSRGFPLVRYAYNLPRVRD

Sequence of human RSPO1 (Q2MKA7 21-263): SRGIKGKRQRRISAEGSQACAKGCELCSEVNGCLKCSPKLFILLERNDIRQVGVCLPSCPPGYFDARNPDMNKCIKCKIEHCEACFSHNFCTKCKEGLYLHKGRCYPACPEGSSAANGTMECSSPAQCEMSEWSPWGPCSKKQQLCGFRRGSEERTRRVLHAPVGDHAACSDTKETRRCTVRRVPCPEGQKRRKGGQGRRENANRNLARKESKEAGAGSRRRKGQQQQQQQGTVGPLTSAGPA
Sequence of UniProt Q5SSZ7 (Q5SSZ7 53-913): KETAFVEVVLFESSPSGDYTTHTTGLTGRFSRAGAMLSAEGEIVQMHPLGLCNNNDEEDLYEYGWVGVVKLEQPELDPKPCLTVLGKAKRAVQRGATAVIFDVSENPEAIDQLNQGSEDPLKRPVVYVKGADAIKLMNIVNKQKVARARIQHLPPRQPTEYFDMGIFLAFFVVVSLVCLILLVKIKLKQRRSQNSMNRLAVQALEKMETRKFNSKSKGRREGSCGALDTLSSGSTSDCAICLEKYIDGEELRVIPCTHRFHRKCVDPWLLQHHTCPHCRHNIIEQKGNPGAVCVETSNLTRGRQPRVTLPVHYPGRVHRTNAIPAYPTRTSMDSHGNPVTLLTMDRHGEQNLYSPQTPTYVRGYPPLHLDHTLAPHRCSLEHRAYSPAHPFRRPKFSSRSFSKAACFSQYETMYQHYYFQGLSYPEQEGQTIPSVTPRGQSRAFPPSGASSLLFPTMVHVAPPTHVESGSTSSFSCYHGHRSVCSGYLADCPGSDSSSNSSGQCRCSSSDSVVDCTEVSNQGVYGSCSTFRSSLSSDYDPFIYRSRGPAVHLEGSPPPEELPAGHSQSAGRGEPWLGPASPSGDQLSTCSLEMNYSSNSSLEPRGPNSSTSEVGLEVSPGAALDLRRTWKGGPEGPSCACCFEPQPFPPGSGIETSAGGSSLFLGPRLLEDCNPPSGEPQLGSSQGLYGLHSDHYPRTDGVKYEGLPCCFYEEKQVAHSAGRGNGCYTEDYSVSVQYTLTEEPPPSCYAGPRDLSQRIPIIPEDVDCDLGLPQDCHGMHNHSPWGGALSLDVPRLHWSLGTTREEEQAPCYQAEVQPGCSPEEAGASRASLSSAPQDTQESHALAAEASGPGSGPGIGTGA

Work on “human RSPO1 (from UniProt Q2MKA7 21-263) (ligand)” yielded an MIN6 cell number after 24 h of incubation with increasing doses of human RSPO1, against controls [1] of 2.08 fold and an MIN6 cell number after 24 h of incubation with increasing doses of human RSPO1, against controls [2] of 2.08 fold.
